Assay results taken from US20250352624A1, “SUPEROXIDE DISMUTASE AND USES THEREOF FOR PREVENTING OR TREATING DRY EYE SYNDROME” (GENOFOCUS, INC., priority 2021, published 2025).

Columns and labels:
Type in all cases: in vivo
[1] = system: experimental dry eye (EDE)-induced C57BL/6 mouse model; test: Tear volume (phenol red thread) in experimental dry eye mice
Protocol: (§1) To induce experimental dry eye, 7- to 8-week-old C57BL/6 mice (purchased from Damool Science) were injected subcutaneously with scopolamine hydrochloride at 0.5 mg/0.2 ml three times a day under exposure to a ventilating device for 18 hours a day. The humidity was maintained at 30%, and the temperature was maintained at 25° C. The C57BL/6 mice were classified into 7 groups, depending on concentrations of the oral drug to be administered, as shown in Table 6.
(§2) After inducing experimental dry eye in the experimental mice, the drugs prepared in Example 3 were orally administered at 2 μL per dose once a day to the treatment groups (administered at 13:30 every day). In both eyes of all mice, at baseline, day 5, and day 10, tear volume and tear film break-up time were measured and corneal fluorescent staining score was examined. The mice were then sacrificed and tissue analysis was performed. Each group consisted of 6 animals.
Tear volume was determined as follows. A phenol red-impregnated cotton thread was brought into contact for 20 seconds with the conjunctival sac on the lateral canthus side of each mouse, and the length was measured using SMZ microscopy. Then, the measured length was converted into a volume by substituting it into a given formula (see Villareal A L, Farley W, Pflugfelder S C. Effect of topical ophthalmic epinastine and olopatadine on tear volume in mice. Eye Contact Lens. 2006; 32:272-6).

[2] = system: experimental dry eye (EDE)-induced C57BL/6 mouse model; test: Goblet cells in conjunctiva (PAS staining histology)
Protocol: as §1, §2
The eye and accessory tissues were excised from one eye of one animal in each group, fixed in 4% paraformaldehyde, embedded in paraffin, and then PAS staining was performed on two cross-sectional pieces of the tissue. In each piece, the density of goblet cells in the conjunctiva was calculated using a microscope and image analysis software.

[3] = system: experimental dry eye (EDE)-induced C57BL/6 mouse model; test: Inflammatory cytokines by Luminex multiplex immunobead assay
Protocol: as §1
(§3) In both eyes of all mice, at baseline, day 5, and day 10, tear volume and tear film break-up time were measured and corneal fluorescent staining score was examined. The mice were then sacrificed and tissue analysis was performed. Each group consisted of 6 animals.
Conjunctival tissue was excised and collected from 6 eyes of 3 animals in each group, and then immersed in lysis buffer containing protease inhibitors for 30 minutes. Subsequently, the resultant was centrifuged and stored −80° C. Then, the concentrations of IFN-γ, IL-1Bβand TNF-α in the cornea and conjunctiva were analyzed using the Luminex multiplex immunobead assay.

[4] = system: experimental dry eye (EDE)-induced C57BL/6 mouse model; test: Apoptosis (TUNEL immunofluorescent staining); conditions: for number of necrotic cells in the cornea: TUNEL staining
Protocol: as §1, §3
The eye and accessory tissues were excised from one eye of one animal in each group, fixed in 4% paraformaldehyde, embedded in paraffin, and then TUNEL staining was performed on two cross-sectional pieces of the tissue. […]

[5] = system: experimental dry eye (EDE)-induced C57BL/6 mouse model; test: Reactive oxygen species (DCF-DA) by flow cytometry
Protocol: as §1, §2
The cornea, conjunctiva, and lacrimal gland were excised, sectioned with scissors, and then shaken with 0.5 mg/mL of collagenase type D (manufactured by Roche Applied Science, Indianapolis, IN, USA) at 37° C. for 60 minutes. The tissue was ground and then allowed to pass through a cell strainer, followed by centrifugation. The number of CD4+IFN-γ+T cells was calculated by performing flow cytometry with fluorescein-conjugated anti-CD4 antibody and phycoerythrin-conjugated anti-IFN-γ antibody, and the number of DCF-DA cells was calculated using the CM-H2DCFDA kit (manufactured by Thermo Fisher Scientific, Waltham, MA, USA).

[6] = system: experimental dry eye (EDE)-induced C57BL/6 mouse model; test: Corneal fluorescent staining score in experimental dry eye mice; conditions: for corneal fluorescent staining score: total 0 to 16 points
Protocol: as §1, §2
1 μL of 1% fluorescent dye was instilled into the eyes of each mouse, followed by washing with saline. Subsequently, the cornea of each mouse was observed using a slit lamp microscope to score the degree of epithelial injury (the extent to which fluorescent staining occurred).

[7] = before drug administration, 2.5 mg/kg oral group
[8] = before drug administration, 5 mg/kg oral group
[9] = before drug administration, 10 mg/kg oral group
[10] = day 5 of administration, 2.5 mg/kg oral once a day
[11] = day 5 of administration, 5 mg/kg oral once a day
[12] = day 5 of administration, 10 mg/kg oral once a day
[13] = day 10 of administration, 2.5 mg/kg oral once a day
[14] = day 10 of administration, 5 mg/kg oral once a day
[15] = day 10 of administration, 10 mg/kg oral once a day
[16] = days 5 and 10, 0.05% CsA eye drop, SodA2 2.5, 5 and 10 mg/kg oral
[17] = conjunctiva, 2.5 mg/kg oral once a day
[18] = conjunctiva, 5 mg/kg oral once a day
[19] = conjunctiva, 10 mg/kg oral once a day
[20] = cornea, 2.5 mg/kg oral once a day
[21] = cornea, 5 mg/kg oral once a day
[22] = cornea, 10 mg/kg oral once a day

B1: SodA2: variant Mn-SOD of Bacillus amyloliquefaciens GF423 sodA, Asn73 and Asn136 replaced with Asp, SEQ ID NO: 4; given orally shellac-coated, mixed with dextrin (protein, listed as Bacillus amyloliquefaciens)
chain: MAYKLPELPYAYDALEPHIDKETMTIHHTKHHNTYVTNLNKAIEGSALAEKSVDELVADLNAVPEDIRTAVRDDGGGHANHSLFWTLLSPNGGGEPTGELAEEIKSTFGSFDQFKEKFAAAAAGRFGSGWAWLVVDDGKLEITSTPNQDSPLSEGKTPVLGLDVWEHAYYLNYQNRRPDYISAFWNVVNWDEVARLYSEAK
modifications: shellac coating; dextrin mixture
[1]; 5 mg/kg oral
  tear volume as compared with the 0.05% CsA group: more significant increase
[1]; [7]
  tear volume: 0.024 ± 0.003 µL
[1]; [8]
  tear volume: 0.022 ± 0.004 µL
[1]; [9]
  tear volume: 0.023 ± 0.004 µL
[1]; [10]
  tear volume: 0.026 ± 0.005 µL
[1]; [11]
  tear volume: 0.026 ± 0.005 µL
[1]; [12]
  tear volume: 0.026 ± 0.005 µL
[1]; [13]
  tear volume: 0.027 ± 0.005 µL
[1]; [14]
  tear volume: 0.03 ± 0.005 µL
[1]; [15]
  tear volume: 0.028 ± 0.004 µL
[1]; [16]
  tear volume as compared with the EDE and vehicle groups: significant increase
[2]; 2.5 mg/kg oral once a day
  number of goblet cells in the conjunctiva: 27.9±6.9 cells/100 μm
[2]; 5 mg/kg oral
  number of goblet cells as compared with the 0.05% CsA group: more significant increase
[2]; 5 mg/kg oral once a day
  number of goblet cells in the conjunctiva: 35.8±10.2 cells/100 μm
[2]; 10 mg/kg oral once a day
  number of goblet cells in the conjunctiva: 32.2±3.9 cells/100 μm
[2]; all treatment groups: 0.05% CsA, SodA2 2.5, 5 and 10 mg/kg oral
  number of goblet cells in the conjunctiva, change in treatment groups: significant increase
[3]; [17]
  IFN-γ: 21.27 ± 17.49 pg/mL
  IL-1β: 21.5 ± 9.26 pg/mL
  TNF-α: 22.6 ± 7.72 pg/mL
[3]; [18]
  IFN-γ: 18.28 ± 11.75 pg/mL
  IL-1β: 19.0 ± 7.17 pg/mL
  TNF-α: 18.8 ± 11.6 pg/mL
[3]; [19]
  IFN-γ: 15.53 ± 11.43 pg/mL
  IL-1β: 16.3 ± 9.12 pg/mL
  TNF-α: 22.5 ± 11.4 pg/mL
[3]; cornea and conjunctiva, CsA and oral SodA2 groups
  concentrations of IFN-γ, IL-1β, and TNF-α as compared with the EDE and vehicle groups: tendency of decreased concentrations
[3]; [20]
  IFN-γ: 10.77 ± 8.30 pg/mL
  IL-1β: 15.45 ± 8.93 pg/mL
  TNF-α: 22.6 ± 7.72 pg/mL
[3]; [21]
  IFN-γ: 9.80 ± 6.11 pg/mL
  IL-1β: 13.17 ± 2.26 pg/mL
  TNF-α: 18.8 ± 11.6 pg/mL
[3]; [22]
  IFN-γ: 7.89 ± 7.90 pg/mL
  IL-1β: 8.69 ± 4.18 pg/mL
  TNF-α: 22.5 ± 11.4 pg/mL
[3]; oral, all doses
  inflammatory cytokines as compared with CsA: tended to decrease inflammatory cytokines more than CsA
[4]; 2.5 mg/kg oral once a day
  number of necrotic cells in the cornea: 6.2±1.1 cells/100 μm
[4]; 5 mg/kg oral once a day
  number of necrotic cells in the cornea: 4.0±1.3 cells/100 μm
[4]; 10 mg/kg oral once a day
  number of necrotic cells in the cornea: 4.6±1.3 cells/100 μm
[4]; groups treated with CsA and oral SodA2
  number of dead cells in the cornea as compared with the EDE and vehicle groups: significantly decreased
[5]; [17]
  amount of reactive oxygen species generated: 55.13±7.41%
[5]; [18]
  amount of reactive oxygen species generated: 57.63±8.16%
[5]; [19]
  amount of reactive oxygen species generated: 53.29±1.19%
[5]; cornea, 2.5 mg/kg oral
  effect of decreasing generation of reactive oxygen species as compared with the CsA group: better effect
[5]; [20]
  amount of reactive oxygen species generated: 33.57±26.51%
[5]; [21]
  amount of reactive oxygen species generated: 54.53±13.53%
[5]; [22]
  amount of reactive oxygen species generated: 57.38±23.43%
[5]; lacrimal gland, 2.5 mg/kg oral once a day
  amount of reactive oxygen species generated: 59.05±10.77%
[5]; lacrimal gland, 5 mg/kg oral once a day
  amount of reactive oxygen species generated: 56.03±6.37%
[5]; lacrimal gland, 10 mg/kg oral once a day
  amount of reactive oxygen species generated: 49.92±4.19%
[6]; 5 mg/kg oral
  corneal fluorescent staining score as compared with the 0.05% CsA group: more significant decrease
[6]; [7]
  corneal fluorescent staining score: 9.2±1.7 points
[6]; [8]
  corneal fluorescent staining score: 9.4±1.7 points
[6]; [9]
  corneal fluorescent staining score: 9.3±1.7 points
[6]; [10]
  corneal fluorescent staining score: 10.4±1.9 points
[6]; [11]
  corneal fluorescent staining score: 9.9±2.5 points
[6]; [12]
  corneal fluorescent staining score: 10.1±2.9 points
[6]; [13]
  corneal fluorescent staining score: 8.8±2 points
[6]; [14]
  corneal fluorescent staining score: 7.8±1.9 points
[6]; [15]
  corneal fluorescent staining score: 8.2±1.9 points
[6]; [16]
  corneal fluorescent staining score as compared with the EDE and vehicle groups: significant decrease
